Measurements taken from paper PMC9482650, “Quantitative fragmentomics allow affinity mapping of interactomes” (Nature Communications, 2022).

T1: HTRA4, P83105
T1 sequence (P83105 378-476, limits assumed, looked up): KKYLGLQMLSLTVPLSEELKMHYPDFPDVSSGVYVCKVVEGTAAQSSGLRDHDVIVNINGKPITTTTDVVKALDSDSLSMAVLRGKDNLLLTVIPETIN

T2: MPP6, Q9NZW5
T2 sequence (Q9NZW5 125-219, limits assumed, looked up): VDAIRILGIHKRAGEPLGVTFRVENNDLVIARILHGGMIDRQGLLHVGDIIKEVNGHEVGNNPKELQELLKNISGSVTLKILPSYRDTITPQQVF

T3: RAPGEF6, Q8TEU7
T3 sequence (Q8TEU7 525-625, limits assumed, looked up): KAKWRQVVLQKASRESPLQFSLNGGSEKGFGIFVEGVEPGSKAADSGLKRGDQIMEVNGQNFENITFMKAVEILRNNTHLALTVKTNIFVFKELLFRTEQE

T4: RADIL, Q96JH8
T4 sequence (Q96JH8 971-1071, limits assumed, looked up): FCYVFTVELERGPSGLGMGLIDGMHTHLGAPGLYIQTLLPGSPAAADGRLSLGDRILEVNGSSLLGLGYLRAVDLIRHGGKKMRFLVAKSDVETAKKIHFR

T5: TIAM2, Q8IVF5
T5 sequence (Q8IVF5 885-986, limits assumed, looked up): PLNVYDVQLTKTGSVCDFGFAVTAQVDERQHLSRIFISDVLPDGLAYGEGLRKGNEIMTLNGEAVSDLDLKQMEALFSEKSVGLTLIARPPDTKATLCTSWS

T6: SNTG1, Q9NSN8
T6 sequence (Q9NSN8 52-150, limits assumed, looked up): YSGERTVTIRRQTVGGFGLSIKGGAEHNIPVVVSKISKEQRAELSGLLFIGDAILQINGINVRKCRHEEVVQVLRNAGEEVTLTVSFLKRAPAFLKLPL

T7: GRIP1_7, Q9Y3R0
T7 sequence (Q9Y3R0 999-1096, limits assumed, looked up): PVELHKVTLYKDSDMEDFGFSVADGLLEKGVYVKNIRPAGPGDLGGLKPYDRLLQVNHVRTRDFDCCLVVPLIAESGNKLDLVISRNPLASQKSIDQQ

T8: SNTB1, Q13884
T8 sequence (Q13884 107-205, limits assumed, looked up): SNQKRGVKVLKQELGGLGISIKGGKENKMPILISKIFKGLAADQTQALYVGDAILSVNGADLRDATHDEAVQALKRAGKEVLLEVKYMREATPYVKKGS

T9: PDZD2_2, O15018
T9 sequence (O15018 329-429, limits assumed, looked up): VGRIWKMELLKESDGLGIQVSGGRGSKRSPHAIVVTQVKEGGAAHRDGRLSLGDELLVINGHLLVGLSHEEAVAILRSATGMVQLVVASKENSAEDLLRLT

T10: APBA3_1, O96018
T10 sequence (O96018 389-490, limits assumed, looked up): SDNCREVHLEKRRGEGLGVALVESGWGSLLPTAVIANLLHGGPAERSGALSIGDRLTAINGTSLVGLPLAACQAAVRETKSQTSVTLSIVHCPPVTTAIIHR

T11: APBA2_1, Q99767
T11 sequence (Q99767 563-664, limits assumed, looked up): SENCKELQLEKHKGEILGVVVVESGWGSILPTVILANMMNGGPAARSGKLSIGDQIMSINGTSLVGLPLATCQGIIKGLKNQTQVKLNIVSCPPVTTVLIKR

T12: LNX2_3, Q8N448
T12 sequence (Q8N448 463-564, limits assumed, looked up): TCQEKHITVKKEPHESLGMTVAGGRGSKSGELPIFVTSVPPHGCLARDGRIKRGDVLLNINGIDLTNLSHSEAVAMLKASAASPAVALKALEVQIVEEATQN

B1: TMEM151B, Q8IW70 (peptide)
chain: RHGSCVETSL
B2: MYOZ1, Q9NP98 (peptide)
chain: IPLDGETEEL

Each binder was assayed against GRIP2_5, Q9C0E4 (assay: holdup assay). Conditions: plain residues with an end cap or a label only (N-terminal biotin on a linker: ado-ado).
Chain of GRIP2_5, Q9C0E4 (Q9C0E4 544-642): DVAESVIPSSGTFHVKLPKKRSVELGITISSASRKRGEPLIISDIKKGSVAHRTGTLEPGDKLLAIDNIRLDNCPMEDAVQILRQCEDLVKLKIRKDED
Design: key: below the threshold = too weak to quantify, mostly under pKd 3.1 to 4
B1 was tested, and the pKd was “below the threshold”.
For B2, the pKd was “below the threshold”.

These binders were tested against T1, HTRA4, P83105 (assay: holdup assay). Conditions: plain residues with an end cap or a label only (N-terminal biotin on a linker: ado-ado).
Design: key: below the threshold = too weak to quantify, mostly under pKd 3.1 to 4
With B1 the pKd was “below the threshold”.
In the case of B2, the pKd is reported as “below the threshold”.

The binders below were run against T2, MPP6, Q9NZW5 (assay: holdup assay). Conditions: plain residues with an end cap or a label only (N-terminal biotin on a linker: ado-ado).
Design: key: below the threshold = too weak to quantify, mostly under pKd 3.1 to 4
With B1 the pKd was “below the threshold”.
B2 was tested, and the pKd was “below the threshold”.

What follows are binders tested against DLG4_1, P78352 (assay: holdup assay). Conditions: plain residues with an end cap or a label only (N-terminal biotin on a linker: ado-ado).
Chain of DLG4_1, P78352 (P78352 62-152): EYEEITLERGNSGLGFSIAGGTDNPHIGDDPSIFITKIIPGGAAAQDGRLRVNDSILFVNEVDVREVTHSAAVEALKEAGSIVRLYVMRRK
Design: key: below the threshold = too weak to quantify, mostly under pKd 3.1 to 4
With B1 the pKd was 3.98.
In the case of B2, the pKd is reported as “below the threshold”.

These binders were tested against T3, RAPGEF6, Q8TEU7 (assay: holdup assay). Conditions: plain residues with an end cap or a label only (N-terminal biotin on a linker: ado-ado).
Design: key: below the threshold = too weak to quantify, mostly under pKd 3.1 to 4
B1 was tested, and the pKd was “below the threshold”.
In the case of B2, the pKd is reported as “below the threshold”.

These binders were tested against FRMPD2_2, Q68DX3 (assay: holdup assay). Conditions: plain residues with an end cap or a label only (N-terminal biotin on a linker: ado-ado).
Chain of FRMPD2_2, Q68DX3 (Q68DX3 944-1038): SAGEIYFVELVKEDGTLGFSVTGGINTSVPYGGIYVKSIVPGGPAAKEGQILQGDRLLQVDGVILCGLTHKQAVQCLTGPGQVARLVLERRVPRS
Design: key: below the threshold = too weak to quantify, mostly under pKd 3.1 to 4
Work on B1 yielded a pKd of 3.57.
B2 was tested, and the pKd was “below the threshold”.

Each binder was assayed against T4, RADIL, Q96JH8 (assay: holdup assay). Conditions: plain residues with an end cap or a label only (N-terminal biotin on a linker: ado-ado).
Design: key: below the threshold = too weak to quantify, mostly under pKd 3.1 to 4
With B1 the pKd was “below the threshold”.
B2 was tested, and the pKd was “below the threshold”.

The binders below were run against LIMK2, P53671 (assay: holdup assay). Conditions: plain residues with an end cap or a label only (N-terminal biotin on a linker: ado-ado).
Chain of LIMK2, P53671 (P53671 143-248): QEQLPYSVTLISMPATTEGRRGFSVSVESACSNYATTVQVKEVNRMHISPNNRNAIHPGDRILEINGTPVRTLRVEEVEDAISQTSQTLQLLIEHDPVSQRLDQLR
Design: key: below the threshold = too weak to quantify, mostly under pKd 3.1 to 4
For B1, the pKd was “below the threshold”.
In the case of B2, the pKd is reported as “below the threshold”.

These binders were tested against GRIP2_6, Q9C0E4 (assay: holdup assay). Conditions: plain residues with an end cap or a label only (N-terminal biotin on a linker: ado-ado).
Chain of GRIP2_6, Q9C0E4 (Q9C0E4 648-740): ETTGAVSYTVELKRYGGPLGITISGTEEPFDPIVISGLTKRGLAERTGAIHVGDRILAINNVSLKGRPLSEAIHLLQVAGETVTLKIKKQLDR
Design: key: below the threshold = too weak to quantify, mostly under pKd 3.1 to 4
For B1, the pKd was “below the threshold”.
With B2 the pKd was “below the threshold”.

These binders were tested against T5, TIAM2, Q8IVF5 (assay: holdup assay). Conditions: plain residues with an end cap or a label only (N-terminal biotin on a linker: ado-ado).
Design: key: below the threshold = too weak to quantify, mostly under pKd 3.1 to 4
In the case of B1, the pKd is reported as “below the threshold”.
With B2 the pKd was “below the threshold”.

What follows are binders tested against T6, SNTG1, Q9NSN8 (assay: holdup assay). Conditions: plain residues with an end cap or a label only (N-terminal biotin on a linker: ado-ado).
Design: key: below the threshold = too weak to quantify, mostly under pKd 3.1 to 4
In the case of B1, the pKd is reported as 4.45.
In the case of B2, the pKd is reported as “below the threshold”.

These binders were tested against PDLIM1, O00151 (assay: holdup assay). Conditions: plain residues with an end cap or a label only (N-terminal biotin on a linker: ado-ado).
Chain of PDLIM1, O00151 (O00151 1-87): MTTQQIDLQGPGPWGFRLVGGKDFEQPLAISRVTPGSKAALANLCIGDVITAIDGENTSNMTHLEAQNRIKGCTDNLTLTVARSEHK
Design: key: below the threshold = too weak to quantify, mostly under pKd 3.1 to 4
B1 was tested, and the pKd was 3.65.
For B2, the pKd was 4.18.

The binders below were run against T7, GRIP1_7, Q9Y3R0 (assay: holdup assay). Conditions: plain residues with an end cap or a label only (N-terminal biotin on a linker: ado-ado).
Design: key: below the threshold = too weak to quantify, mostly under pKd 3.1 to 4
With B1 the pKd was “below the threshold”.
B2 was tested, and the pKd was “below the threshold”.

Each binder was assayed against Inadl_3, Q8NI35 (assay: holdup assay). Conditions: plain residues with an end cap or a label only (N-terminal biotin on a linker: ado-ado).
Chain of Inadl_3, Q8NI35 (Q8NI35 359-469): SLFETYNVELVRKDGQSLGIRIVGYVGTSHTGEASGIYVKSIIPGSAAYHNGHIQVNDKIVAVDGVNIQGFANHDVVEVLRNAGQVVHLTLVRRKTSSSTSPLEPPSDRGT
Design: key: below the threshold = too weak to quantify, mostly under pKd 3.1 to 4
B1 gave a pKd of 3.59.
In the case of B2, the pKd is reported as “below the threshold”.

What follows are binders tested against T8, SNTB1, Q13884 (assay: holdup assay). Conditions: plain residues with an end cap or a label only (N-terminal biotin on a linker: ado-ado).
Design: key: below the threshold = too weak to quantify, mostly under pKd 3.1 to 4
For B1, the pKd was 4.88.
In the case of B2, the pKd is reported as “below the threshold”.

The binders below were run against T9, PDZD2_2, O15018 (assay: holdup assay). Conditions: plain residues with an end cap or a label only (N-terminal biotin on a linker: ado-ado).
Design: key: below the threshold = too weak to quantify, mostly under pKd 3.1 to 4
B1 gave a pKd of 3.56.
With B2 the pKd was “below the threshold”.

What follows are binders tested against DLG5_1, Q8TDM6 (assay: holdup assay). Conditions: plain residues with an end cap or a label only (N-terminal biotin on a linker: ado-ado).
Chain of DLG5_1, Q8TDM6 (Q8TDM6 617-713): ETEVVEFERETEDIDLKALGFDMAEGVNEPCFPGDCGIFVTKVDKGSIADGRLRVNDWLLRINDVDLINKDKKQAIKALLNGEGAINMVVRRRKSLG
Design: key: below the threshold = too weak to quantify, mostly under pKd 3.1 to 4
With B1 the pKd was “below the threshold”.
For B2, the pKd was “below the threshold”.

These binders were tested against T10, APBA3_1, O96018 (assay: holdup assay). Conditions: plain residues with an end cap or a label only (N-terminal biotin on a linker: ado-ado).
Design: key: below the threshold = too weak to quantify, mostly under pKd 3.1 to 4
In the case of B1, the pKd is reported as “below the threshold”.
With B2 the pKd was “below the threshold”.

Each binder was assayed against GRIP2_4, Q9C0E4 (assay: holdup assay). Conditions: plain residues with an end cap or a label only (N-terminal biotin on a linker: ado-ado).
Chain of GRIP2_4, Q9C0E4 (Q9C0E4 446-548): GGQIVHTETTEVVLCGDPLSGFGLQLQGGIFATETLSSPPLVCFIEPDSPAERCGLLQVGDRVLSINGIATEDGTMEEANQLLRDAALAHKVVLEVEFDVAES
Design: key: below the threshold = too weak to quantify, mostly under pKd 3.1 to 4
B1 was tested, and the pKd was “below the threshold”.
For B2, the pKd was “below the threshold”.

The binders below were run against T11, APBA2_1, Q99767 (assay: holdup assay). Conditions: plain residues with an end cap or a label only (N-terminal biotin on a linker: ado-ado).
Design: key: below the threshold = too weak to quantify, mostly under pKd 3.1 to 4
In the case of B1, the pKd is reported as “below the threshold”.
In the case of B2, the pKd is reported as “below the threshold”.

Each binder was assayed against TJP1_3, Q07157 (assay: holdup assay). Conditions: plain residues with an end cap or a label only (N-terminal biotin on a linker: ado-ado).
Chain of TJP1_3, Q07157 (Q07157 416-512): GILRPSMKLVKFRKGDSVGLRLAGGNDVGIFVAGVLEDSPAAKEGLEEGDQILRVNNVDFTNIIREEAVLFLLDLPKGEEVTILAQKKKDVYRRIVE
Design: key: below the threshold = too weak to quantify, mostly under pKd 3.1 to 4
B1 was tested, and the pKd was “below the threshold”.
For B2, the pKd was “below the threshold”.

What follows are binders tested against DLG1_1, Q12959 (assay: holdup assay). Conditions: plain residues with an end cap or a label only (N-terminal biotin on a linker: ado-ado).
Design: key: below the threshold = too weak to quantify, mostly under pKd 3.1 to 4
Binder B1 has a pKd of 4.23.
B2 was tested, and the pKd was “below the threshold”.

What follows are binders tested against T12, LNX2_3, Q8N448 (assay: holdup assay). Conditions: plain residues with an end cap or a label only (N-terminal biotin on a linker: ado-ado).
Design: key: below the threshold = too weak to quantify, mostly under pKd 3.1 to 4
For B1, the pKd was “below the threshold”.
B2 was tested, and the pKd was “below the threshold”.

The binders below were run against Inadl_5, Q8NI35 (assay: holdup assay). Conditions: plain residues with an end cap or a label only (N-terminal biotin on a linker: ado-ado).
Chain of Inadl_5, Q8NI35 (Q8NI35 673-780): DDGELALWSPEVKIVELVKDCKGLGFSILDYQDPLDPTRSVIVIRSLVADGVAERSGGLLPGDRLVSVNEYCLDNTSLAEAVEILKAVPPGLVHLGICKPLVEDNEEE
Design: key: below the threshold = too weak to quantify, mostly under pKd 3.1 to 4
In the case of B1, the pKd is reported as “below the threshold”.
In the case of B2, the pKd is reported as “below the threshold”.

The binders below were run against Inadl_2, Q8NI35 (assay: holdup assay). Conditions: plain residues with an end cap or a label only (N-terminal biotin on a linker: ado-ado).
Chain of Inadl_2, Q8NI35 (Q8NI35 238-335): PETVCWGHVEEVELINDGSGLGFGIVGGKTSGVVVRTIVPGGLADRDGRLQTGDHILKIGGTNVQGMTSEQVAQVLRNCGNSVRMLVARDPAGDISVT
Design: key: below the threshold = too weak to quantify, mostly under pKd 3.1 to 4
In the case of B1, the pKd is reported as “below the threshold”.
With B2 the pKd was “below the threshold”.
